Source: US20030073236A1 (published 2003)

B1: p193 (mouse p193, full length) (other)
chain: MVGELRYREFRVPLGPGLHAYPDELIRQRVGHNGHPEYQIRWLILRRGDDGDRDSTVDCKAEHILLWMSDDEIYANCHKMLGENGQVIAPSRESTEAGALDKSVLGEMETDVKSLIQRALRQLEECVGTVPPAPLLHTVHVLSAYASIEPLTGIFKDRRVVNLLMHMLSSPDYQIRWSAGRMIQALSSHDAGTRTQILLSLSQQEAIEKHLDFDSRCALLALFAQATLTEHPMSFEGVQLPQVPGRLLFSLVKRYLHVTFLLDRLNGDAGDQGAQNNFSPEELNVGRGRLELEFSMAMGTLISELVQAMRWDGASSRPESSSSSTFQPRPAQFRPYTQRFRRSRRFRPRASFASFNTYALYVRDTLRPGMRVRMLENYEEIAAGDEGQFRQSNDGVPPAQVLWDSTGHTYWVHWHMLEILGFEEDIEDVIDIEELQELGANGALSIVPPSQRWKPITQLFAEPYVVPEEEDREESENLTQAEWWELLFFIRQLSEAERLHIVDLLQDHLEEERVLDYDMLPELTVPVDLAQDLLLSLPQQLEDSALRDLFSCSVYRKYGPEVLVGHLSYPFVPGAQPNLFGANEESEAKDPPLQSASPALQRLVESLGPEGEVLVELEQALGSEAPQETEVKSCLLQLQEQPQPFLALMRSLDTSASNKTLHLTVLRILMQLVNFPEALLLPWHEAMDACVTCLRSPNTDREVLQELIFFLHRLTTTSRDYAVILNQHGARDAISKVLEKHRGKLELAQELRDMVSKCEKHAHLYRKLTTNILGGCIQMVLGQIEDHRRTHRPIQIPFFDVFLRYLCQGSSEEMKKNRYWEKVEVSSNPQRASRLTDRNPKTYWESSGRAGSHFITLHMRPGVIIRQLTLLVAGEDSSYMPAWVVVCGGNSIKSVNKELNTVNVMPSASRVTLLENLTRFWPIIQIRIKRCQQGGINTRIRGLEVLGPKPTFWPVFREQLCRHTRLFYMVRAQAWSQDIAEDRRSLLHLSSRLNGALRHEQNFAERFLPDMEAAQALSKTCWEALVSPLVQNITSPDEDSTSSLGWLLDQYLGCREAAYNPQSRAAAFSSRVRRLTHLLVHVEPREAAPPVVAIPRSKGRNRIHDWSYLITRGLPSSIMKNLTRCWRSVVEEQMNKFLSASWKDDDFVPRYCERYYVLQKSSSELFGPRAAFLLAMRNGCADAVRRLPFLRAAHVKQQFARHIDQRIQGSRMGGARGMEMLAQLQRCLESVLIFSPLEIATTFEHYYQHYMADRLLSVGSSWLEGAVLEQIGPCFPSRLPQQMLQSLNVSEELQRQFHVYQLQQLDQELLKLEDTEKKIQVAHEDSGREDKSKKEEAIGEAAAVAMAEEEDQGKKEEGEEEGEGEDEEEERYYKGTMPEVCVLVVTPRFWPVASVCQMLNPATCLPAYLRGTINHYTNFYSKSQSRSSLEKEPQRRLQWTWQGRAEVQFGGQILHVSTVQMWLLLHLNNQKEVSVESLQAISELPPDVLHRAIGPLTSSRGPLDLQEQKNVPGGVLKIRDDSEEPRPRRGNVWLIPPQTYLQAEAEEGRNMEKRRNLLNCLVVRILKAHGDEGLHVDRLVYLVLEAWEKGPCPARGLVSSLGRGATCRSSDVLSCILHLLVKGTLRRHDDRPQVLYYAVPVTVMEPHMESLNPGSAGPNPPLTFHTLQIRSRGVPYASCTDNHTFSTFR
modifications: 35S-methionine labelled in the immune precipitation experiments
notes: also called in vitro translated p193
B2: p193myc (p193 protein harboring a C-terminal myc epitope tag, from CMV-p193myc) (other, not shown: small tags and cut ends)
chain: MVGELRYREFRVPLGPGLHAYPDELIRQRVGHNGHPEYQIRWLILRRGDDGDRDSTVDCKAEHILLWMSDDEIYANCHKMLGENGQVIAPSRESTEAGALDKSVLGEMETDVKSLIQRALRQLEECVGTVPPAPLLHTVHVLSAYASIEPLTGIFKDRRVVNLLMHMLSSPDYQIRWSAGRMIQALSSHDAGTRTQILLSLSQQEAIEKHLDFDSRCALLALFAQATLTEHPMSFEGVQLPQVPGRLLFSLVKRYLHVTFLLDRLNGDAGDQGAQNNFSPEELNVGRGRLELEFSMAMGTLISELVQAMRWDGASSRPESSSSSTFQPRPAQFRPYTQRFRRSRRFRPRASFASFNTYALYVRDTLRPGMRVRMLENYEEIAAGDEGQFRQSNDGVPPAQVLWDSTGHTYWVHWHMLEILGFEEDIEDVIDIEELQELGANGALSIVPPSQRWKPITQLFAEPYVVPEEEDREESENLTQAEWWELLFFIRQLSEAERLHIVDLLQDHLEEERVLDYDMLPELTVPVDLAQDLLLSLPQQLEDSALRDLFSCSVYRKYGPEVLVGHLSYPFVPGAQPNLFGANEESEAKDPPLQSASPALQRLVESLGPEGEVLVELEQALGSEAPQETEVKSCLLQLQEQPQPFLALMRSLDTSASNKTLHLTVLRILMQLVNFPEALLLPWHEAMDACVTCLRSPNTDREVLQELIFFLHRLTTTSRDYAVILNQHGARDAISKVLEKHRGKLELAQELRDMVSKCEKHAHLYRKLTTNILGGCIQMVLGQIEDHRRTHRPIQIPFFDVFLRYLCQGSSEEMKKNRYWEKVEVSSNPQRASRLTDRNPKTYWESSGRAGSHFITLHMRPGVIIRQLTLLVAGEDSSYMPAWVVVCGGNSIKSVNKELNTVNVMPSASRVTLLENLTRFWPIIQIRIKRCQQGGINTRIRGLEVLGPKPTFWPVFREQLCRHTRLFYMVRAQAWSQDIAEDRRSLLHLSSRLNGALRHEQNFAERFLPDMEAAQALSKTCWEALVSPLVQNITSPDEDSTSSLGWLLDQYLGCREAAYNPQSRAAAFSSRVRRLTHLLVHVEPREAAPPVVAIPRSKGRNRIHDWSYLITRGLPSSIMKNLTRCWRSVVEEQMNKFLSASWKDDDFVPRYCERYYVLQKSSSELFGPRAAFLLAMRNGCADAVRRLPFLRAAHVKQQFARHIDQRIQGSRMGGARGMEMLAQLQRCLESVLIFSPLEIATTFEHYYQHYMADRLLSVGSSWLEGAVLEQIGPCFPSRLPQQMLQSLNVSEELQRQFHVYQLQQLDQELLKLEDTEKKIQVAHEDSGREDKSKKEEAIGEAAAVAMAEEEDQGKKEEGEEEGEGEDEEEERYYKGTMPEVCVLVVTPRFWPVASVCQMLNPATCLPAYLRGTINHYTNFYSKSQSRSSLEKEPQRRLQWTWQGRAEVQFGGQILHVSTVQMWLLLHLNNQKEVSVESLQAISELPPDVLHRAIGPLTSSRGPLDLQEQKNVPGGVLKIRDDSEEPRPRRGNVWLIPPQTYLQAEAEEGRNMEKRRNLLNCLVVRILKAHGDEGLHVDRLVYLVLEAWEKGPCPARGLVSSLGRGATCRSSDVLSCILHLLVKGTLRRHDDRPQVLYYAVPVTVMEPHMESLNPGSAGPNPPLTFHTLQIRSRGVPYASCTDNHTFSTFR
notes: Expressed in NIH-3T3 cells co-transfected with CMV-T-Ag; also called CMV-p193myc product

How the values were obtained:
[1] = molecular target: T1, SV40 Large T Antigen (T-Ag) (SV40, UniProt P03070 1-708); experiment: co-immunoprecipitation from metabolically labeled AT-2 cardiomyocytes
T1 construct: also called SV40 T-Ag; recombinant SV40 T-Ag

[2] = molecular target: T1, SV40 Large T Antigen (T-Ag); experiment: immune precipitation / Western blot, NIH-3T3 cells co-transfected with CMV-p193myc and CMV-T-Ag

Binder | binding result [1] | binding result [2]
B1 | binds | –
B2 | – | binds
